Assay results taken from US20260022170A1 (published 2026).

B1: Benchmark-3 (antibody, V domains shown)
VH: QSLEESGGRLVKPDETLTITCTVSGIDLSSYDMTWVRQAPGKGLEWIGIIYTGGLTYYASWAKGRFTISKTSTTVDLKITSPTTEDTATYFCAREVGDNNNFWGPGTLVTVSS
VL: DVVMTQTPASVSEPVGGTVTIKCQASESVDSGLAWYHQKPGQPPKLLIYDDTDLASGVPSRFKGSRSGTAHTLTISDLECADAATYYCQYTDYGRTYVGTFGGGTEVVIKG
B2: humanised CB6B3 (huCB6B3) (antibody, V domains shown)
VH: EVQLVQSGAEVKKPGATVKISCKVSGYTFTDYFIHWVQQAPGKGLEWMGLIDPENDNTMYDPRFQVRVTITADTSTDTAYMELSSLRSEDTAVYYCASTVVARSFDYWGQGTTVTVSS
VL: AIQMTQSPSSLSASVGDRVTITCKASQSVSNDVAWYQQKPGKAPKLLIYYTSNRYTGVPSRFSGSGSGTDFTLTISSLQPEDFATYYCQQDFRSPFTFGGGTKVEIK
B3: anti-Siglec-9 monoclonal antibody clone ED2D5 (antibody, V domains shown)
VH: EVQLVESGGGLVKPGGSLKLSCAASGFTFSDYYMYWVRQTPEKRLEWVATISDGGSDTYYPDNMKGRFTISRDNAKNNLYLQMSSLKSEDTAMYYCTRDPDYDDGRFAYWGQGTLVTVSA
VL: DIVMTQSHKFMSTSVGDRVSITCKASQDVGTVVAWYQQKSGQSPKLLIYWSSTRHTGVPDRFTGSGSGTDFTLTISNVQSEDLADYFCQQYIDYPLSFGAGTKLELK
B4: anti-Siglec-9 monoclonal antibody clone CB6B3 (parental mouse antibody) (antibody, V domains shown)
VH: EVQLQQSGAEVVRPGALVKLSCKAAGFNIKDYFIHWVKQRPEQGLEWIGLIDPENDNTMYDPRFQVKASLTADTSSNTAYLQLSRLTSEDAAVYYCASTVVARSFDYWGQGTTLTVSS
VL: SIVMTQTPKFLLVSAGDRVTITCKASQSVSNDVAWYQQKSGQSPKLLIYYTSNRYTGVPDRFTGSGYGTDFTFTISTVQAEDLAVYFCQQDFRSPFTFGAGTKLELK

How the values were obtained:
[1] = molecular target: recombinant human Siglec-9 protein (UniProt Q9Y336 18-348); experiment: ELISA
Sequence of recombinant human Siglec-9 protein (Q9Y336 18-348): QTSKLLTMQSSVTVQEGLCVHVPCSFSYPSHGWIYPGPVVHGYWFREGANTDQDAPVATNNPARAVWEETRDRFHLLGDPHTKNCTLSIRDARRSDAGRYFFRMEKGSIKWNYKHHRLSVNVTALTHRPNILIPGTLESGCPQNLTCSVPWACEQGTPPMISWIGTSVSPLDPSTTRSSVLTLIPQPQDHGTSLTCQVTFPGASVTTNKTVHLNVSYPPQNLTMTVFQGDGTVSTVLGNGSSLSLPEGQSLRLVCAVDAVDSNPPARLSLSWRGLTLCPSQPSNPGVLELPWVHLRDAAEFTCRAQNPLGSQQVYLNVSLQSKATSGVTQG

[2] = molecular target: recombinant Siglec-9 (SinoBiological, 30109-H03H) (UniProt Q9Y336 18-348); experiment: ELISA
Sequence of recombinant Siglec-9 (SinoBiological, 30109-H03H) (Q9Y336 18-348): as above

[3] = molecular target: human Siglec-9 protein (recombinant; construct not stated) (UniProt Q9Y336 18-344); experiment: BLI
Sequence of human Siglec-9 protein (recombinant; construct not stated) (Q9Y336 18-344): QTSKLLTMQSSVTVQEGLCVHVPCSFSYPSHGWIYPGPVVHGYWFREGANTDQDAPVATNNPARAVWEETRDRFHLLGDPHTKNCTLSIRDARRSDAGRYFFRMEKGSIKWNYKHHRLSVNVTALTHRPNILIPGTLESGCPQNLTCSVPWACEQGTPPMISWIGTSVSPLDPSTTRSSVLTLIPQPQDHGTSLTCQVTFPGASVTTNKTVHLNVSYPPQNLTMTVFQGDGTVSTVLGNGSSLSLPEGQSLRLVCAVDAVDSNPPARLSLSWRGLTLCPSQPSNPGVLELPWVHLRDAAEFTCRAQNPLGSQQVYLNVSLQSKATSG

Binder	Kd [3] [nM]	also measured
B1		EC50 [1]: 0.157 nM
B2		EC50 [2]: 0.13 nM
B3	38	
B4	80	
